Blank lines part the entries; values can stand above or below the binder they belong to.
Key:
SAXS = molecular target: the molecule itself; assay: SAXS
[1] = molecular target: X1BR2-GFP (C-terminal BRCT domain of XRCC1 fused to C-terminal GFP) (human, UniProt P18887 538-633); assay: GFP-fluorescence-based competition binding assay
L3BR (residues 825-922) = molecular target: T1, L3BR (residues 825-922) (human, UniProt P49916-3 825-922); assay: native gel or EMSA
T1 sequence (looked up): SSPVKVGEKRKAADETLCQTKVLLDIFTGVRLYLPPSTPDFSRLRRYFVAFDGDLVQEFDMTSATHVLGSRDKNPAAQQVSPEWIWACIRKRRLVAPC

SEC = molecular target: the molecule itself; assay: SEC

B1: phosphorylated XRCC1ΔN (XRCC1ΔN-p, residues 294-633) (domain or fragment, human, UniProt P18887 294-633, looked up)
chain: AVTGKPRGEGTEPRRPRAGPEELGKILQGVVVVLSGFQNPFRSELRDKALELGAKYRPDWTRDSTHLICAFANTPKYSQVLGLGGRIVRKEWVLDCHRMRRRLPSQRYLMAGPGSSSEEDEASHSGGSGDEAPKLPQKQPQTKTKPTQAAGPSSPQKPPTPEETKAASPVLQEDIDIEGVQSEGQDNGAEDSGDTEDELRRVAEQKEHRLPPGQEENGEDPYAGSTDENTDSEEHQEPPDLPVPELPDFFQGKHFFLYGEFPGDERRKLIRYVTAFNGELEDYMSDRVQFVITAQEWDPSFEEALMDNPSLAFVRPRWIYSCNEKQKLLPHQLYGVVPQA
modifications: phosphorylated by casein kinase II (CK2) in the region between X1BR1 and X1BR2; sites not given
binding result (SAXS): binds

B3: X1BR2 L626E (residues 538-633), designated wild type (WT) in Figure 1E (domain or fragment, human, UniProt P18887 538-633, looked up)
chain: ELPDFFQGKHFFLYGEFPGDERRKLIRYVTAFNGELEDYMSDRVQFVITAQEWDPSFEEALMDNPSLAFVRPRWIYSCNEKQKLLPHQEYGVVPQA
binding result (L3BR (residues 825-922)): binds

B4: X1BR2 Y565A (on the L626E template, residues 538-633) (domain or fragment, human, UniProt P18887 538-633, looked up)
chain: ELPDFFQGKHFFLYGEFPGDERRKLIRAVTAFNGELEDYMSDRVQFVITAQEWDPSFEEALMDNPSLAFVRPRWIYSCNEKQKLLPHQEYGVVPQA
binding result (L3BR (residues 825-922)): binds

B6: X1BR2 N570A (on the L626E template, residues 538-633) (domain or fragment, human, UniProt P18887 538-633, looked up)
chain: ELPDFFQGKHFFLYGEFPGDERRKLIRYVTAFAGELEDYMSDRVQFVITAQEWDPSFEEALMDNPSLAFVRPRWIYSCNEKQKLLPHQEYGVVPQA
binding result (L3BR (residues 825-922)): binds

B8: L3BR^832 fused to C-terminal GFP (domain or fragment, human, UniProt P49916-3 832-922, looked up)
chain: EKRKAADETLCQTKVLLDIFTGVRLYLPPSTPDFSRLRRYFVAFDGDLVQEFDMTSATHVLGSRDKNPAAQQVSPEWIWACIRKRRLVAPC
stoichiometry N (SEC): 2

B9: L3BR^832 (untagged, residues 832-922 of DNA ligase IIIα) (domain or fragment, human, UniProt P49916-3 832-922, looked up)
chain: EKRKAADETLCQTKVLLDIFTGVRLYLPPSTPDFSRLRRYFVAFDGDLVQEFDMTSATHVLGSRDKNPAAQQVSPEWIWACIRKRRLVAPC
stoichiometry N (SAXS): 2

Continued, in another order:

EC50 [1]: 670 nM
B2: MBP-L3BR^844 (L3BR^832 lacking its 12 N-terminal residues, MBP fusion) (domain or fragment, human, UniProt P49916-3 844-922, looked up)
chain: TKVLLDIFTGVRLYLPPSTPDFSRLRRYFVAFDGDLVQEFDMTSATHVLGSRDKNPAAQQVSPEWIWACIRKRRLVAPC

binding result (L3BR (residues 825-922)): binds
B5: X1BR2 F569A (on the L626E template, residues 538-633) (domain or fragment, human, UniProt P18887 538-633, looked up)
chain: ELPDFFQGKHFFLYGEFPGDERRKLIRYVTAANGELEDYMSDRVQFVITAQEWDPSFEEALMDNPSLAFVRPRWIYSCNEKQKLLPHQEYGVVPQA

EC50 [1]: 1240 nM
B7: MBP-L3BR^832 (C-terminal BRCT domain of DNA ligase IIIα, residues 832-922, N-terminal MBP fusion) (domain or fragment, human, UniProt P49916-3 832-922, looked up)
chain: EKRKAADETLCQTKVLLDIFTGVRLYLPPSTPDFSRLRRYFVAFDGDLVQEFDMTSATHVLGSRDKNPAAQQVSPEWIWACIRKRRLVAPC
stoichiometry N (SEC): 2

Reference: paper PMC7797052 (Nucleic Acids Research, 2020)
